Assays:
[1] = test system: PE-DTA-mutated cleavage site-defensin
[2] = test system: PE-DTA-cleavage site-defensin (P6-P4' NS5A/B site of genotype 1b/1a)

recombinant MBP-scNS3 fusion
in vitro cleavage by NS3 (immunoblot with anti-PE antibodies) [1]: resistant to cleavage by NS3
in vitro cleavage by NS3 (immunoblot with anti-PE antibodies) [2]: complete cleavage of the chimeric toxin
